Assays:
[1] = target: T1, human KDR (human, UniProt P35968 20-1356); test: cell-based or functional assay
[2] = target: T1, human KDR; test: cell-based or functional assay; remark: listed apart in the source
[3] = target: T1, human KDR; test: cell-based or functional assay; remark: listed apart in the source
[4] = target: T2, whole KDR-ECD (Cat. # 676490, Calbiochem) (human, UniProt P35968 20-764); test: ELISA, KDR-ECD coat 5 ug/mL, antibody 1 ug/mL
T2 construct: extracellular domain; Bought soluble protein; also called soluble KDR; VEGF Receptor 2 D1-7
T2 sequence (P35968 20-764): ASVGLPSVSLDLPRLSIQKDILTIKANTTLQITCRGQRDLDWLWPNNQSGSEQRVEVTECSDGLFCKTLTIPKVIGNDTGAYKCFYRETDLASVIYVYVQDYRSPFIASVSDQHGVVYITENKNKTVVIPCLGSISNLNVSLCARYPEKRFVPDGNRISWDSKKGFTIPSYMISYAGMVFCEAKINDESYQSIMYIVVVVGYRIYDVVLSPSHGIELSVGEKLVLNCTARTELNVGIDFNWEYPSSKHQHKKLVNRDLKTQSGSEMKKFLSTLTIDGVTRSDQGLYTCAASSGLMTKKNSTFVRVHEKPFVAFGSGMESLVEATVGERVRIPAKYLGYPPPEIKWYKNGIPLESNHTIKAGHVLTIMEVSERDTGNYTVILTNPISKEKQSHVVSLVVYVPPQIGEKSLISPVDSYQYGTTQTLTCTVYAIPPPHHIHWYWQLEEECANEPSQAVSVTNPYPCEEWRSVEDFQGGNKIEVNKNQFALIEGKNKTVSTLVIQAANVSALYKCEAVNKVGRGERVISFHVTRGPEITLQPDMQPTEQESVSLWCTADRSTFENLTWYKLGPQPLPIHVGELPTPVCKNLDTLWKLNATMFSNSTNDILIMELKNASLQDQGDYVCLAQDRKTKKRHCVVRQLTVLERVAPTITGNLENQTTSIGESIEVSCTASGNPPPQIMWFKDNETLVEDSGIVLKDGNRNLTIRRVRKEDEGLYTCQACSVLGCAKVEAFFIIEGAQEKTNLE
Method: (§1) The cross-reactivity of purified antibodies was tested against KDR mouse ortholog KDR mouse ortholog (mouse VEGFR2, or Flk-1) and human VEGFR1 (Flt-1). The ability of the antibodies to bind soluble KDR Ig4-7 domain and to the entire KDR extracellular domain (ECD) was also measured.
(§2) Cross-reactivity experiments were carried out and measured using an ELISA based assay as described in Example 6. […] Antibody controls included IgG1 and IgG4 (Sigma-Aldrich, Cat. #15154 and #14639, respectively).

[5] = target: T2, whole KDR-ECD (Cat. # 676490, …); test: ELISA, KDR-ECD coat 5 ug/mL, antibody 0.1 ug/mL
Method: as §1, §2

[6] = target: T2, whole KDR-ECD (Cat. # 676490, …); test: ELISA, KDR-ECD coat 5 ug/mL, antibody 0.01 ug/mL
Method: as §1, §2

[7] = target: T3, soluble KDR Ig4-7 domain (human, UniProt P35968 328-764); test: ELISA, KDR Ig4-7 coat (1:1 diln.), antibody 1 ug/mL
T3 construct: domain: Ig4-7 domain; also called b-KDRIg4-7-myc-his; Ig4-7 domain of KDR; not shown: myc-his tag of the pSecTag construct
T3 sequence (P35968 328-764): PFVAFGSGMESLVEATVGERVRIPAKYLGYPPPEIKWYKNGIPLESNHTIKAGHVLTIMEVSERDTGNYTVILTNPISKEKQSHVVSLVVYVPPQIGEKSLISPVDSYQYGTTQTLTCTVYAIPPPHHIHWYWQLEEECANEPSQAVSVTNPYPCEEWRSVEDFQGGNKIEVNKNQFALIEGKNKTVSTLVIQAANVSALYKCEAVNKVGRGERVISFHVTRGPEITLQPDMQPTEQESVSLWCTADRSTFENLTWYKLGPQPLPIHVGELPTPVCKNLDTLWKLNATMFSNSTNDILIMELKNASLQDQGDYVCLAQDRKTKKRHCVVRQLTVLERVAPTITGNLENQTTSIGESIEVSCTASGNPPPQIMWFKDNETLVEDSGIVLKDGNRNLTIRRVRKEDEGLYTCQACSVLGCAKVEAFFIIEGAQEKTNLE
Method: as §1, §2

[8] = target: T3, soluble KDR Ig4-7 domain; test: ELISA, KDR Ig4-7 coat (1:1 diln.), antibody 0.1 ug/mL
Method: as §1, §2

[9] = target: T3, soluble KDR Ig4-7 domain; test: ELISA, KDR Ig4-7 coat (1:1 diln.), antibody 0.01 ug/mL
Method: as §1, §2

[10] = target: T1, human KDR; test: FACS titration of purified antibody on HUVEC cells (FACS Kd)
Method: The binding affinities of the purified antibodies for endogenously-expressed KDR in HUVEC cells was measured. HUVEC cells were seeded at 150,000 cells/well and incubated with titrations of purified antibody for 4 hours at 4° C. The cells were then washed and incubated with goat anti-human IgG-Fc-Cy5+5 μg/mL 7-Amino-Actinomycin (7AAD) for 30 minutes at 4° C. Bound KDR was detected using FACS analysis.

[11] = target: T4, human KDR (VEGFR2) on cells (human, UniProt P35968 20-1356); test: cell-based or functional assay
T4 sequence (P35968 20-1356): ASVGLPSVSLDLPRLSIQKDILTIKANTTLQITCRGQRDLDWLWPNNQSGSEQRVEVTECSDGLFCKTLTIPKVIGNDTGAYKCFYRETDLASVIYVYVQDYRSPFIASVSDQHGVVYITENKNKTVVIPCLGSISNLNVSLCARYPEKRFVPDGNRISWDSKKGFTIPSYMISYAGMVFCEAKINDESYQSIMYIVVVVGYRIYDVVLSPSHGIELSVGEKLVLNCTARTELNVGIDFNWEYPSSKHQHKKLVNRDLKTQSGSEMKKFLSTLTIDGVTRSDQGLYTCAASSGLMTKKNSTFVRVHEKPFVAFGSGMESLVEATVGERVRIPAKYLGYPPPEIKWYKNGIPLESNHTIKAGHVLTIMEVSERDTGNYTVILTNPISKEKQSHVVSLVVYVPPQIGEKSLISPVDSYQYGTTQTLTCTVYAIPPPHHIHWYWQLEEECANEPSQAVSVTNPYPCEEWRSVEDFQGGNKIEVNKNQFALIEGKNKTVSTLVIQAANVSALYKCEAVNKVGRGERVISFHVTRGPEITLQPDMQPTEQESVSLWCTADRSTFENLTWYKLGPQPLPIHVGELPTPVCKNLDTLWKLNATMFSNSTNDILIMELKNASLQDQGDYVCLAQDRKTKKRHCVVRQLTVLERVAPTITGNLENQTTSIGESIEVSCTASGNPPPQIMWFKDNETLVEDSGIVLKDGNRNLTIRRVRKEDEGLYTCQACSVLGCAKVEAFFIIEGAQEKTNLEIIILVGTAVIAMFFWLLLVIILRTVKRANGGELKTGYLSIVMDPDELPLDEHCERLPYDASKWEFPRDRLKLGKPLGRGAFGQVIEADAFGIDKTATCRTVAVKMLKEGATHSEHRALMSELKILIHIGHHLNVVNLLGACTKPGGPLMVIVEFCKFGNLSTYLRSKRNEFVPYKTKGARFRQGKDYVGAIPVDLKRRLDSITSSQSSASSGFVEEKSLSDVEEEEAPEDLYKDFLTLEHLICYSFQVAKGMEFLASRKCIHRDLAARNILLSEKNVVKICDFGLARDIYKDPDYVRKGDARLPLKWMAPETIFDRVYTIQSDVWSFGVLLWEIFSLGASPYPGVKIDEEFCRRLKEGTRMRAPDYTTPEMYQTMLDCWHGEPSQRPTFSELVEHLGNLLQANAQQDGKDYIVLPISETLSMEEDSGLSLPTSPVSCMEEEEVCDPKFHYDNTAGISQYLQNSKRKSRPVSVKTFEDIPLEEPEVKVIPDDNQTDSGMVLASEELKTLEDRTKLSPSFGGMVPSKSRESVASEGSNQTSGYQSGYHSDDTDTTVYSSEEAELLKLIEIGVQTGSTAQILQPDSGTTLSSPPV

[12] = target: T4, human KDR (VEGFR2) on cells; test: cell-based or functional assay; remark: listed apart in the source
[13] = target: T4, human KDR (VEGFR2) on cells; test: cell-based or functional assay; remark: listed apart in the source
[14] = target: T4, human KDR (VEGFR2) on cells; test: FACS on HUVEC, hybridoma supernatant 1:50
In short: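 HUVECs incubated 1 h at 4° C with hybridoma supernatant at 1:50, then Cy5 goat anti-human antibody (5 μg/mL) plus 7AAD (5 μg/mL) for 15 min at 4° C. Cell-surface binding read by FACS; goat anti-KDR antibody as positive control, irrelevant hybridoma supernatants as negative controls.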

[15] = target: T5, mouse KDR (Flk-1)/Fc (Cat. #443-KD/CF, R&D Systems) (mouse, UniProt P35918 20-762); test: ELISA, plate-coated Flk-1/Fc 500 ng/mL, hybridoma supernatant 1:5
T5 construct: Bought reagent; also called mouse VEGFR2; KDR mouse ortholog; Fc part of the bought chimera not given
T5 sequence (P35918 20-762): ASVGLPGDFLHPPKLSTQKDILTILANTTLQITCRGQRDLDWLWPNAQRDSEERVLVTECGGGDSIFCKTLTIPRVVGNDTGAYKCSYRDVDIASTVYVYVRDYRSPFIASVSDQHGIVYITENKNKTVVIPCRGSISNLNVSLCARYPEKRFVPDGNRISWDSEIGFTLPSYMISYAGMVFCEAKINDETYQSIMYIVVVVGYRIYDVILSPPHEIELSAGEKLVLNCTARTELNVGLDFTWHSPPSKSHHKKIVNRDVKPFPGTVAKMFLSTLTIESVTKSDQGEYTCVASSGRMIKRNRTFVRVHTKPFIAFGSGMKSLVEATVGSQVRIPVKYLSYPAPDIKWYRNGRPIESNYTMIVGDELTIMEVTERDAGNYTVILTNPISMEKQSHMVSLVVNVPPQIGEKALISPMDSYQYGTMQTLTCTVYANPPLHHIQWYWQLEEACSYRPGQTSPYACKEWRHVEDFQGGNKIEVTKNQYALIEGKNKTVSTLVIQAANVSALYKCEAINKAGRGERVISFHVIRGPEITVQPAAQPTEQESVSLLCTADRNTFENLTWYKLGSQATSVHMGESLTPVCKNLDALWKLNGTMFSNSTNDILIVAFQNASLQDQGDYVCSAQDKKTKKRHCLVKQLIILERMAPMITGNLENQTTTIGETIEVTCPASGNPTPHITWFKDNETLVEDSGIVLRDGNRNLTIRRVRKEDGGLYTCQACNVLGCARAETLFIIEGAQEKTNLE

[16] = target: T6, soluble KDR (VEGF Receptor 2 D1-7, Cat. #676490, Calbiochem) (human, UniProt P35968 20-764); test: ELISA, plate-coated soluble KDR 250 ng/mL, hybridoma supernatant 1:5
T6 construct: extracellular domain; Bought reagent; also called soluble human KDR; immobilized soluble KDR
T6 sequence (P35968 20-764): as the sequence (P35968 20-764) above
Method: To screen by binding to immobilized soluble KDR, plates were coated with KDR (Calbiochem) at 250 ng/mL overnight at 4° C. After blocking and washing the coated plates, the candidate hybridoma supernatants (at 1:5 dilution) were transferred to the plates and incubated for one hour at room temperature. The plates were then washed and incubated with secondary antibody (at 1:4000 dilution) for one hour at room temperature.

[17] = target: T7, b-KDRIg4-7-myc-his (UniProt P35968 328-764, prefix 'b-' not explained; captured on neutravidin-coated plates (presumably biotinylated, site not stated)); test: ELISA, b-KDRIg4-7-myc-his 1 ug/mL on neutravidin, hybridoma supernatant 1:5
T7 construct: domain: Ig4-7; The text calls it 'a KDR antibody containing the Ig4-7 domain'; it is read as the KDR fragment; Purified on a nickel column; also called Ig4-7 domain of KDR; soluble KDR Ig4-7; not shown: myc-his tag of the pSecTag vector
T7 sequence (P35968 328-764): as the sequence (P35968 328-764) above
Method: To screen by binding to the Ig4-7 domain of KDR, plates were first coated with neutravadin (Pierce) at 4 μg/mL and incubated overnight at 4° C. The plates were then blocked and subsequently incubated with b-KDRIg4-7-myc-his at 1 μg/mL for one hour at room temperature. Candidate hybridoma supernatants (at 1:5 dilution) were transferred to the plates and incubated for one hour at room temperature. The plates were then washed and incubated with goat anti-human IgG Fc POD (at 1:4000 dilution) for one hour at room temperature.

[18] = target: T8, mouse KDR (Flk-1)/Fc (Cat. #443-KD/CF, R&D Systems, Inc.) (mouse, UniProt P35918 20-762); test: ELISA, Flk-1 coat 5 ug/mL, antibody 1 ug/mL
T8 construct: Bought reagent; also called mouse VEGFR2; KDR mouse ortholog; not shown: Fc of the bought fusion protein
T8 sequence (P35918 20-762 limits assumed): as the sequence (P35918 20-762) above
Method: as §1, §2

[19] = target: T8, mouse KDR (Flk-1)/Fc (Cat. #443-KD/CF, …); test: ELISA, Flk-1 coat 5 ug/mL, antibody 0.1 ug/mL
Method: as §1, §2

[20] = target: T8, mouse KDR (Flk-1)/Fc (Cat. #443-KD/CF, …); test: ELISA, Flk-1 coat 5 ug/mL, antibody 0.01 ug/mL
Method: as §1, §2

T1 sequence (P35968 20-1356): as the sequence (P35968 20-1356) above

Row | Binder | KDR tyrosine phosphorylation in HUVEC, EC50 (nM), Average [1] | KDR tyrosine phosphorylation in HUVEC, EC50 (nM), N = 1 [1] | KDR tyrosine phosphorylation in HUVEC, EC50 (nM), N = 2 [1] | KDR tyrosine phosphorylation in HUVEC, Maximum Inhibition at 100 nM (% Inhibition), Average [1] | KDR tyrosine phosphorylation in HUVEC, Maximum Inhibition at 100 nM (% Inhibition), N = 1 [1] | KDR tyrosine phosphorylation in HUVEC, Maximum Inhibition at 100 nM (% Inhibition), N = 2 [1] | HUVEC survival, Maximum Inhibition at 50 nM (% Inhibition), Average [2] | HUVEC survival, Maximum Inhibition at 50 nM (% Inhibition), N = 1 [2] | HUVEC survival, Maximum Inhibition at 50 nM (% Inhibition), N = 2 [2] | 6-keto Prostaglandin F1α release, Maximum Inhibition (% Inhibition), Average [3] | 6-keto Prostaglandin F1α release, Maximum Inhibition (% Inhibition), N = 1 (200 nM) [3] | 6-keto Prostaglandin F1α release, Maximum Inhibition (% Inhibition), N = 2 (333 nM) [3] | ELISA reading [4] | ELISA reading [5] | ELISA reading [6] | ELISA reading [7] | ELISA reading [8] | ELISA reading [9] | Kd [10] | % Inhibition of VEGF165-mediated pTyr Activity, Average [11] | also measured
1 | 30H10 (antibody, V domains shown, Fully human monoclonal antibody from a XenoMouse hybridoma (IgG2 or IgG4 strain), purified) VH: EVQLLESGGGLVQPGGSLRLSCAASGFTFSNYAMSWVRQAPGKGLEWVSAISGSGGITYYADSVKGRFTISRDNSKNTLFLQMNSLRAEDTAVYYCAKASGDNWGQGTLVSVSS VL: not shown | 0.4 nM | 0.6 nM | 0.2 nM | 29% | 36% | 22% | -5% | -9% | -1% | 3% | 0% | 6% | 2.47 | 0.31 | 0.117 | 3.04 | 2.77 | 1.36 | 0.9 nM |  | 
2 | anti-KDR monoclonal antibody 32F4 (antibody, V domains shown, Fully human mAb from XenoMouse (IgG2 or IgG4 strain); hybridoma supernatant) VH: QLQLQESGPGLVKPSGTLSLSCTVSGGSISSRSDYWGWIRQPPGKGLEWIGTIYYSGNTFYNPSLKSRVTISVDTSKKQFSLKLSSVTAADTAVYYCARQQLVLYYFDYWGQGTLVTVSS VL: EIVLTQSPGTLSLSPGERATLSCRTSQSVSSSYLAWYQQKPGQAPRLLIYGASSRATGVPDRFSGSGSGTDFSLTISRLEPEDFAVYYCQQYGSSPPLTFGGGTKVEIK |  |  |  |  |  |  |  |  |  |  |  |  |  |  |  |  |  |  |  | 73% | % Inhibition of VEGF165-mediated pTyr Activity, n = 1 [11]: 88%; % Inhibition of VEGF165-mediated pTyr Activity, n = 2 [11]: 76%; % Inhibition of VEGF165-mediated pTyr Activity, n = 3 [11]: 56%; % Inhibition of VEGF-E-mediated pTyr Activity [12]: 62%; HUVEC survival (n = 1) 1:10 dilution of supernatant (RLU) [13]: 20100 RLU; HUVEC survival (n = 2) 1:20 dilution of supernatant (RLU) [13]: 5030 RLU; FACS Geometric Mean [14]: 27; OD (450 nm) [15]: 0.094 OD450; KDR OD(450 nm) [16]: 0.907 OD450; b-KDRIg4-7 OD(450 nm) [17]: 2.29 OD450
3 | anti-KDR monoclonal antibody 31E11 (antibody, V domains shown, Fully human mAb from XenoMouse (IgG2 or IgG4 strain); hybridoma supernatant) VH: QVQLVESGGGLVKPGGSLRLSCAASGFTFSDYYMSWIRQAPGKGLEWVSYISISGSTIYYADSVKGRFTISRDNAKNSLYLQMNSLRAEDTAVYYCARDDFWSGYYFNWFDPWGQGTLVTVSS VL: DIQMTQSPSSLSASVGDRVTITCRANQTISTFLNWYQQNPGKAPKLLIYAASSLQSGVPSRFSGSGSGTDFTLTISSLQPEDFATYYCQQTYIIPLTFGGGTKVEIK |  |  |  |  |  |  |  |  |  |  |  |  |  |  |  |  |  |  |  | 74% | % Inhibition of VEGF165-mediated pTyr Activity, n = 1 [11]: 81%; % Inhibition of VEGF165-mediated pTyr Activity, n = 2 [11]: 80%; % Inhibition of VEGF165-mediated pTyr Activity, n = 3 [11]: 59%; % Inhibition of VEGF-E-mediated pTyr Activity [12]: 67%; HUVEC survival (n = 1) 1:10 dilution of supernatant (RLU) [13]: 9140 RLU; HUVEC survival (n = 2) 1:20 dilution of supernatant (RLU) [13]: 6980 RLU; FACS Geometric Mean [14]: 18; OD (450 nm) [15]: 0.162 OD450; KDR OD(450 nm) [16]: 1.14 OD450; b-KDRIg4-7 OD(450 nm) [17]: 1.28 OD450
4 | 29H3 (antibody, V domains shown, Fully human monoclonal antibody from a XenoMouse hybridoma (IgG2 or IgG4 strain), purified) VH: QVQLVQSGAEVKKPGASVKVSCKASGYTFTSYDINWVRQATGQGLEWMGWMNPNSGKTGYAQKFQGRVTMTRNTSINTAYMELSSLRSEDTAVYYCARGGYSNLGWFDPWGQGTLVTVSS VL: DIQMTQSPSSVSASVGDRVTITCRASQGISSWLVWYHQKPGKAPKLLIYGASSLQSGVPSRFSGSGSGTDFTLTISSLQPEDFATYYCQQANNFPFTFGPGTKVDIK | 0.4 nM | 0.5 nM | 0.4 nM | 32% | 33% | 30% | 11% | 4% | 18% | 5% | 2% | 8% | 2.62 | 0.306 | 0.099 | 3.02 | 2.36 | 1.14 | 0.5 nM |  | ELISA reading [18]: 3.04; ELISA reading [19]: 2.35; ELISA reading [20]: 1.14

— patent US20100260765A1 (AstraZeneca / MedImmune, published 2010)
